# Laboratory results published in IntAct's records for PubMed 36402845.
# B1: Exostosin-1 (Homo sapiens), Q16394 (parent)
# chain: MQAKKRYFILLSAGSCLALLFYFGGLQFRASRSHSRREEHSGRNGLHHPSPDHFWPRFPDALRPFVPWDQLENEDSSVHISPRQKRDANSSIYKGKKCRMESCFDFTLCKKNGFKVYVYPQQKGEKIAESYQNILAAIEGSRFYTSDPSQACLFVLSLDTLDRDQLSPQYVHNLRSKVQSLHLWNNGRNHLIFNLYSGTWPDYTEDVGFDIGQAMLAKASISTENFRPNFDVSIPLFSKDHPRTGGERGFLKFNTIPPLRKYMLVFKGKRYLTGIGSDTRNALYHVHNGEDVVLLTTCKHGKDWQKHKDSRCDRDNTEYEKYDYREMLHNATFCLVPRGRRLGSFRFLEALQAACVPVMLSNGWELPFSEVINWNQAAVIGDERLLLQIPSTIRSIHQDKILALRQQTQFLWEAYFSSVEKIVLTTLEIIQDRIFKHISRNSLIWNKHPGGLFVLPQYSSYLGDFPYYYANLGLKPPSKFTAVIHAVTPLVSQSQPVLKLLVAAAKSQYCAQIIVLWNCDKPLPAKHRWPATAVPVVVIEGESKVMSSRFLPYDNIITDAVLSLDEDTVLSTTEVDFAFTVWQSFPERIVGYPARSHFWDNSKERWGYTSKWTNDYSMVLTGAAIYHKYYHYLYSHYLPASLKNMVDQLANCEDILMNFLVSAVTKLPPIKVTQKKQYKETMMGQTSRASRWADPDHFAQRQSCMNTFASWFGYMPLIHSQMRLDPVLFKDQVSILRKKYRDIERL
# partner: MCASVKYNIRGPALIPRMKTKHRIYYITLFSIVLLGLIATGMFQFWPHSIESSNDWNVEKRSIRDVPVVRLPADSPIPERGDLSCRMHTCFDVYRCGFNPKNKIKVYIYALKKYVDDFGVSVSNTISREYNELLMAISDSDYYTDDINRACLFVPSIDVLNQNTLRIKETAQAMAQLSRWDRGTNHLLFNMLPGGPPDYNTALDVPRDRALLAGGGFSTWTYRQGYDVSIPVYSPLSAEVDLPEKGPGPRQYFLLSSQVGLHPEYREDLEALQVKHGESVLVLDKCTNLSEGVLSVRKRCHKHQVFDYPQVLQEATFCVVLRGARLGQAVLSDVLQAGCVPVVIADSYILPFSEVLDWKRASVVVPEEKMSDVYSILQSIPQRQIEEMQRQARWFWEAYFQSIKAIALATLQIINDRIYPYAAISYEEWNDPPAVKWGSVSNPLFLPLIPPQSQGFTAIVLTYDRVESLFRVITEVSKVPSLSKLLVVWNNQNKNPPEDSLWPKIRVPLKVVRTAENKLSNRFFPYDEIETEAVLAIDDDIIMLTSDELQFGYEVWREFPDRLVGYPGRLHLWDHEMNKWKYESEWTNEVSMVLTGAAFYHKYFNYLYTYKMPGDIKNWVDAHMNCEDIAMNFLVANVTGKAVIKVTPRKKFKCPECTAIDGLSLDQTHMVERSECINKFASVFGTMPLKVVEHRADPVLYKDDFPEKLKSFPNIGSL
# B2: Exostosin-2 (Homo sapiens), Q93063 (parent)
# chain: B1 partner
# partner: B1 chain
# Variants of: B1
# Conditions: with ext2_human EXT2, Q93063
row,effect of a mutation on the interaction,Variant
1,with no effect,R280A
2,decreasing interaction strength,D565N;D567N
3,with no effect,R346A
4,with no effect,D162N;D164N

# Variants of: B2
# Conditions: with ext1_human EXT1, Q16394
row,effect of a mutation on the interaction,Variant
1,with no effect,R266A
2,with no effect,D538N;D540N
